Data: article PMC6482012

Target: p62 (SQSTM1) (UniProt Q13501)
Assay: GST pulldown after in vitro AMPK reaction
Settings: reference: WT GST-KHK-A without AMPK; sites S80

Substance: KHK-A (fructokinase A, ketohexokinase A) (from UniProt P50053-2) WT GST-KHK-A incubated with active AMPK
- binding against the reference: stronger
